Target: Human recombinant SMAC (10339-H08E), Sino Biologicals (human) (UniProt Q9NR28)
Assay: microscale thermophoresis; fluorescently labelled SMAC (1 µM) with purified PSD (78-625 nM)

Human recombinant SMAC (10339-H08E), Sino Biologicals (human), sequence (Q9NR28 56-239 limits assumed, stated change not applied): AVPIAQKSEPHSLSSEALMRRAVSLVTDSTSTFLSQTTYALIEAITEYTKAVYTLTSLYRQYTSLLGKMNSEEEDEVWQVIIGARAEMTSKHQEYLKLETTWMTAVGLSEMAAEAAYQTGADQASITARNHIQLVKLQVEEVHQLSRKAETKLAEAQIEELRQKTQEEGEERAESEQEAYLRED

Kd: 246 nM
Substance: Purified recombinant protein (full length) of human phosphatidylserine decarboxylase (PSD), with N-terminal His tag, expressed in E. coli (Acris-OriGene) (from UniProt Q58DH2 60-416) (enzyme)

— US20250051409A1, “MODULATORS OF PHOSPHATIDYLSERlNE DECARBOXYLASE AND USE THEREOF” (THE NATIONAL INSTITUTE FOR BIOTECHNOLOGY IN THE NEGEV LTD., priority 2021, published 2025)
